Reference: US20180207294A1, “NON-ALCOHOLIC FATTY LIVER REGULATING FACTOR 14-3-3 PROTEIN” (Korea University Research and Business Foundation, priority 2015, published 2018)

Key:
[1] = biological target: T1, PPARγ2 S273A mutant (Homo sapiens, UniProt P37231, S273A); assay: GST-pull down assay with PPARγ2 S112A and S273A mutants (HEK-293T); type: binding; conditions: FIG. 4A, 4B
T1 construct: expressed in transfected cells; host or cells: HEK-293T
T1 sequence (P37231 1-505 S273A): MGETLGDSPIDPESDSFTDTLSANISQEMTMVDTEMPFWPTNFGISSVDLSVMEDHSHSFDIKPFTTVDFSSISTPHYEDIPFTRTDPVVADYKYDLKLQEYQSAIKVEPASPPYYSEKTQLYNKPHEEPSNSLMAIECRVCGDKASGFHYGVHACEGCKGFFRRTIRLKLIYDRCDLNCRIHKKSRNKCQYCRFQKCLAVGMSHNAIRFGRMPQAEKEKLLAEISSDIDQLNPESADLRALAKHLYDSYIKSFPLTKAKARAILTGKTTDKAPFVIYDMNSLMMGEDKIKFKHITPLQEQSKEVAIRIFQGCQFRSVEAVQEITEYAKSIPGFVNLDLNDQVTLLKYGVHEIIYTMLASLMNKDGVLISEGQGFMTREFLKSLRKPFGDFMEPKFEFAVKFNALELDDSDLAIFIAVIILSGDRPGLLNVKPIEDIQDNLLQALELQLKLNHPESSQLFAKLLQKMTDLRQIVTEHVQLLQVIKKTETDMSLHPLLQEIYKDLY
Protocol: 14-3-3 proteins are known to bind to phosphorylated residues of a target protein. Phosphorylated residues associated with the activity of PPARγ2 are known to be serine 112 and serine 273. Thus, PPARγ2 mutants (PPARγ2 S112A and S273A) with non-phosphorylated serine 112 and serine 273 residues were produced and binding thereof with 14-3-3 proteins was verified through GST-pull down assay.
HEK-293T cells were seeded in a 100 mm plate at a density of 2×10^6 cells per each well, and then transfected with Flag-PPARγ2 (WT) DNA (4 μg), Flag-PPARγ2 (S112A) DNA (4 μg), Flag-PPARγ2(S273A) DNA (4 μg), and mGST-14-3-3β (4 μg) or mGST-14-3-3γ (4 μg) using an E-fection plus reagent (Lugen). As for Flag-PPARγ2 (S112A) DNA and Flag-PPARγ2 (S273A) DNA, DNA fragments amplified through polymerase chain reaction (PCR) were cloned into a Flag-tagged vector. A ratio of DNA to the E-fection plus reagent was 1:2, and this method was performed according to a manufacturer's manual. The corresponding cells were washed with ice-cold PBS and lysed using 500 μl/well of a lysis buffer (150 mM NaCl, 1 mM EDTA, 1% Nonidet P-40, 5% glycerol, 25 mM tris-HCl, pH 7.5, protease inhibitor added), and the lysed cells were centrifuged at 10,000×g and 4° C. for 10 minutes to extract proteins. […]

[2] = tested on: primary mouse hepatocytes; assay: Oil Red-O lipid accumulation, primary mouse hepatocytes; type: cell-based; conditions: 14-3-3 overexpression, 200 μM oleic acid 72 hours, FIG. 9B
Protocol: HepG2 cells and primary mouse hepatocytes were separately seeded in a 6-well plate at a density of 4×10^5 cells per each well, and then transfected with GFP-14-3-3β DNA (1 μg) or GFP-14-3-3γ DNA (1 μg) and si-14-3-3β (10 μM, Santa Cruz) or si-14-3-3γ (10 μM, Santa Cruz) using an E-fection plus reagent (Lugen). A ratio of DNA to the E-fection plus reagent was 1:2, and this method was performed according to a manufacturer's manual. […] The stained cells were bleached with 1 ml of isopropanol and analyzed at a wavelength of 550 nm using a DU530 spectrophotometer (Beckman Instruments, Palo Alto, Calif.).

| binding with PPARγ2 S273A mutant [1] | Substance | lipid accumulation by oleic acid (Oil Red-O) [2] |
| --- | --- | --- |
| suppressed | 14-3-3β: 14-3-3 isoform protein, overexpressed by DNA transfection; regulating factor that increases transcriptional activity of PPARγ2 | increased lipid accumulation |
| suppressed | 14-3-3γ: 14-3-3 isoform protein, overexpressed by DNA transfection; regulating factor that decreases transcriptional activity of PPARγ2 | reduced lipid accumulation |
